Data reported in patent US20040258705A1, “Use of lectins to promote oligomerization of glycoproteins and antigenic molecules” (Antigenics Inc., priority 2003, published 2004).

How the values were obtained:
[1] = tested on: Meth A-specific CD4+ T cell clone 24D3 with irradiated BALB/c splenocytes; test: Meth A in vitro antigen representation assay; format: cell-based, mouse (BALB/c); settings: Meth A gp96; versus matched preparation without buffer exchange; IL-5 ELISA
Text: Materials: irradiated BALB/c splenocytes were used as the Antigen Presenting Cells (APCs). The Meth A-specific CD4^+ T cell clone, 24D3, was used. They are restricted by the MHClI molecule I-Ed, and are specific for the antigenic peptide contained within the sequence […]. The medium used for this assay was RPMI 1640 (Gibco-BRL). […] The wild-type form of the L 1 peptide ([…]) was used as a negative control, and the mutated form of the L11 peptide ([…]) was used as the positive control.
The resulting supernatant was further purified using Con A and DEAE chromatography.
Re-Presentation Assay: 2×104 of Meth A specific CD4^+ T cell clones (24D3) were incubated with 5×105 of irradiated BALB/c splenic APCs in the presence of various concentration of gp96 derived from Meth A or other sources (100, 50, 25, 12.5, 6.25 μg/ml final concentration) for 48-72 hrs in the 96 well flat bottom plate in 200 μl of final volume. Wild type ribosomal protein L11 peptide and mutated ribosomal protein L11 peptide were added in replicate wells and used as a negative control or positive control respectively. After 48-72 hours of incubation at 37° C., 5% CO2, 100 μl of supernatant was taken and IL-5 production was measured by ELISA.

Meth A cells = test: In vivo Meth A tumor inhibition (tumor protection / rejection) assay; parameters: species or system BALB/c mice; settings: Meth A gp96, dose of 10 μg intradermally day 0 and 7; versus matched preparation without buffer exchange
Method: (§1) In vivo Meth A growth inhibition assay: BALB/c mice (n=30/group) were immunized on day 0 and day 7 with 10 or 50 μg of gp96 intradermally in the flank. On study day 14, mice were challenged with 1×10^5 Meth A cells intradermally in a total volume of 100 μl. Growing tumors were monitored during the subsequent four weeks. All animals were euthanized on study day 41 after a final tumor measurement. Data was reported as percentage of animals that are tumor-free on study day 41. Control groups included un-immunized (diluent—negative control) and immunized with irradiated Meth A cells (positive control).
as §1, with “(n=10/group)” for “(n=30/group)”, “10” for “10 or 50”, “gl.” for “μl.”
as §1, with “(n=10/group)” for “(n=30/group)”, “10” for “10 or 50”
as §1, with “mice (n=10/group)” for “mice (n=30/group)”, “with 0.3” for “with 10”, “or 3” for “or 50”, “gp96 alone or in combination with Con A” for “gp96”

B1: Meth A gp96 (Bx): Meth A gp96 prepared with buffer exchange step between Con A and DEAE columns, increased Con A content (protein, UniProt P08113 22-802, looked up)
Endoplasmin: DDEVDVDGTVEEDLGKSREGSRTDDEVVQREEEAIQLDGLNASQIRELREKSEKFAFQAEVNRMMKLIINSLYKNKEIFLRELISNASDALDKIRLISLTDENALAGNEELTVKIKCDKEKNLLHVTDTGVGMTREELVKNLGTIAKSGTSEFLNKMTEAQEDGQSTSELIGQFGVGFYSAFLVADKVIVTSKHNNDTQHIWESDSNEFSVIADPRGNTLGRGTTITLVLKEEASDYLELDTIKNLVRKYSQFINFPIYVWSSKTETVEEPLEEDEAAKEEKEESDDEAAVEEEEEEKKPKTKKVEKTVWDWELMNDIKPIWQRPSKEVEEDEYKAFYKSFSKESDDPMAYIHFTAEGEVTFKSILFVPTSAPRGLFDEYGSKKSDYIKLYVRRVFITDDFHDMMPKYLNFVKGVVDSDDLPLNVSRETLQQHKLLKVIRKKLVRKTLDMIKKIADEKYNDTFWKEFGTNIKLGVIEDHSNRTRLAKLLRFQSSHHSTDITSLDQYVERMKEKQDKIYFMAGSSRKEAESSPFVERLLKKGYEVIYLTEPVDEYCIQALPEFDGKRFQNVAKEGVKFDESEKTKESREATEKEFEPLLNWMKDKALKDKIEKAVVSQRLTESPCALVASQYGWSGNMERIMKAQAYQTGKDISTNYYASQKKTFEINPRHPLIRDMLRRIKEDEDDKTVMDLAVVLFETATLRSGYLLPDTKAYGDRIERMLRLSLNIDPEAQVEEEPEEEPEDTSEDAEDSEQDEGEEMDAGTEEEEEETEKESTEKDEL
modifications: tumor-derived; contains Con A
notes: Meth A gp96 prepared with buffer exchange step between Con A and DEAE columns, increased Con A content
With B1 the “in vitro activity in the Meth A representation assay” value [1] was “higher in vitro antigen representation” and the “in vivo tumor protection activity” value (Meth A cells) was “higher in vivo tumor protection activity”.
